Measurements published in the Human Domainome abundance scans (Beltran et al. 2025).
± gives the uncertainty stated by the source.

Assay: abundance fitness (aPCA) (normalised: wild type 0, dead -1); higher = more abundant; growth selection in yeast, the domain comes from the species named
Conditions: Homo sapiens

Point of comparison: “BAG family molecular chaperone regulator 3 V54R, O95817”, abundance fitness -0.083 ± 0.081. Against it:
- BAG family molecular chaperone regulator 3 V40L, O95817 — lower, -0.664 ± 0.084
- BAG family molecular chaperone regulator 3 V40M, O95817 — within error, 0.03 ± 0.16
- BAG family molecular chaperone regulator 3 V40N, O95817 — within error, 0.081 ± 0.23
- BAG family molecular chaperone regulator 3 V40Q, O95817 — lower, -0.642 ± 0.13
- BAG family molecular chaperone regulator 3 V40R, O95817 — lower, -0.637 ± 0.13
- BAG family molecular chaperone regulator 3 V40S, O95817 — lower, -0.745 ± 0.21
- BAG family molecular chaperone regulator 3 V40T, O95817 — lower, -0.959 ± 0.24
- BAG family molecular chaperone regulator 3 V40W, O95817 — lower, -0.468 ± 0.21
- BAG family molecular chaperone regulator 3 V54A, O95817 — lower, -0.719 ± 0.26
- BAG family molecular chaperone regulator 3 V54C, O95817 — within error, -0.022 ± 0.12
- BAG family molecular chaperone regulator 3 V54D, O95817 — within error, -0.08 ± 0.23
- BAG family molecular chaperone regulator 3 V54E, O95817 — lower, -0.591 ± 0.28
- BAG family molecular chaperone regulator 3 V54F, O95817 — within error, -0.375 ± 0.31
- BAG family molecular chaperone regulator 3 V54G, O95817 — within error, -0.07 ± 0.077
- BAG family molecular chaperone regulator 3 V54I, O95817 — lower, -0.335 ± 0.13
- BAG family molecular chaperone regulator 3 V54K, O95817 — within error, -0.008 ± 0.14
- BAG family molecular chaperone regulator 3 V54L, O95817 — higher, 0.369 ± 0.097
- BAG family molecular chaperone regulator 3 V54M, O95817 — within error, 0.19 ± 0.22
- BAG family molecular chaperone regulator 3 V54P, O95817 — lower, -0.832 ± 0.42
- BAG family molecular chaperone regulator 3 V54Q, O95817 — within error, -0.084 ± 0.23
- BAG family molecular chaperone regulator 3 V54S, O95817 — within error, -0.13 ± 0.13
- BAG family molecular chaperone regulator 3 V54W, O95817 — lower, -0.961 ± 0.37
- BAG family molecular chaperone regulator 3 V54Y, O95817 — within error, -0.376 ± 0.25
- BAG family molecular chaperone regulator 3 W26A, O95817 — lower, -0.534 ± 0.092
- BAG family molecular chaperone regulator 3 W26D, O95817 — lower, -0.621 ± 0.37
- BAG family molecular chaperone regulator 3 W26E, O95817 — lower, -0.885 ± 0.25
- BAG family molecular chaperone regulator 3 W26F, O95817 — higher, 0.4 ± 0.21
- BAG family molecular chaperone regulator 3 W26G, O95817 — lower, -0.653 ± 0.17
- BAG family molecular chaperone regulator 3 W26H, O95817 — lower, -0.362 ± 0.069
- BAG family molecular chaperone regulator 3 W26I, O95817 — lower, -0.608 ± 0.34
- BAG family molecular chaperone regulator 3 W26K, O95817 — higher, 0.189 ± 0.081
- BAG family molecular chaperone regulator 3 W26L, O95817 — lower, -0.583 ± 0.14
- BAG family molecular chaperone regulator 3 W26M, O95817 — lower, -0.721 ± 0.2
- BAG family molecular chaperone regulator 3 W26P, O95817 — lower, -0.892 ± 0.39
- BAG family molecular chaperone regulator 3 W26Q, O95817 — lower, -0.641 ± 0.33
- BAG family molecular chaperone regulator 3 W26R, O95817 — within error, -0.228 ± 0.1
- BAG family molecular chaperone regulator 3 W26S, O95817 — lower, -0.381 ± 0.12
- BAG family molecular chaperone regulator 3 W26T, O95817 — lower, -0.335 ± 0.074
- BAG family molecular chaperone regulator 3 W26V, O95817 — lower, -0.467 ± 0.2
- BAG family molecular chaperone regulator 3 W26Y, O95817 — within error, -0.326 ± 0.48
- BAG family molecular chaperone regulator 3 W36A, O95817 — higher, 0.844 ± 0.49
- BAG family molecular chaperone regulator 3 W36E, O95817 — higher, 1.43 ± 0.23
- BAG family molecular chaperone regulator 3 W36G, O95817 — higher, 0.48 ± 0.35
- BAG family molecular chaperone regulator 3 W36K, O95817 — higher, 1.09 ± 0.12
- BAG family molecular chaperone regulator 3 W36R, O95817 — higher, 0.623 ± 0.3
- BAG family molecular chaperone regulator 3 W36S, O95817 — higher, 1.56 ± 0.45
- BAG family molecular chaperone regulator 3 W36T, O95817 — higher, 1.25 ± 0.32
- BAG family molecular chaperone regulator 3 W36V, O95817 — higher, 1.02 ± 0.24
- BAG family molecular chaperone regulator 3 W49C, O95817 — lower, -0.634 ± 0.29
- BAG family molecular chaperone regulator 3 W49D, O95817 — within error, -0.572 ± 0.44
- BAG family molecular chaperone regulator 3 W49E, O95817 — within error, -0.221 ± 0.12
- BAG family molecular chaperone regulator 3 W49F, O95817 — within error, -0.227 ± 0.42
- BAG family molecular chaperone regulator 3 W49G, O95817 — lower, -0.748 ± 0.15
- BAG family molecular chaperone regulator 3 W49L, O95817 — lower, -0.588 ± 0.081
- BAG family molecular chaperone regulator 3 W49M, O95817 — within error, -0.21 ± 0.18
- BAG family molecular chaperone regulator 3 W49N, O95817 — within error, -0.204 ± 0.34
- BAG family molecular chaperone regulator 3 W49P, O95817 — lower, -0.72 ± 0.25
- BAG family molecular chaperone regulator 3 W49Q, O95817 — lower, -0.764 ± 0.42
- BAG family molecular chaperone regulator 3 W49R, O95817 — within error, -0.226 ± 0.1
- BAG family molecular chaperone regulator 3 W49S, O95817 — lower, -0.436 ± 0.12
- BAG family molecular chaperone regulator 3 W49V, O95817 — lower, -0.665 ± 0.13
- SAFB-like transcription modulator D24A, Q9NWH9 — lower, -0.217 ± 0.033
- SAFB-like transcription modulator D24C, Q9NWH9 — lower, -0.226 ± 0.036
- SAFB-like transcription modulator D24E, Q9NWH9 — within error, -0.003 ± 0.038
- SAFB-like transcription modulator D24F, Q9NWH9 — lower, -0.466 ± 0.033
